Paper PMC5220320 (Scientific Reports, 2017)

Tests used:
[1] = target: T1, NDH-2 (type II NADH:quinone oxidoreductase) (Caldalkalibacillus thermarum, UniProt F5L3B8, G164E); test: steady-state kinetics (KM); compromised binding, no CTC; type: biochemical
T1 construct: gene CathTA2_0279
T1 sequence (F5L3B8 1-399 G164E): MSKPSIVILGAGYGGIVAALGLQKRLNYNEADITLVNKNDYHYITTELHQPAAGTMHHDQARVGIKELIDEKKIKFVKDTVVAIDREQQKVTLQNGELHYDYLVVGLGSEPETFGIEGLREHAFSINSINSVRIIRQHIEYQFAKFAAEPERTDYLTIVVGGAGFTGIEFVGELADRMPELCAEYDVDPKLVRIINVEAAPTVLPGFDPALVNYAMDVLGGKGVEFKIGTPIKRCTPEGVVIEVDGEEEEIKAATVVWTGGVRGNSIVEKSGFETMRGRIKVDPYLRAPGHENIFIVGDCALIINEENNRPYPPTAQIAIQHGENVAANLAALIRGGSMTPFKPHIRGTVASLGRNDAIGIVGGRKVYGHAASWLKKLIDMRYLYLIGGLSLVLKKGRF

[2] = target: T2, NDH-2 (type II NADH:quinone oxidoreductase) (Caldalkalibacillus thermarum, UniProt F5L3B8, I379E); test: CTC formation by absorbance and stopped-flow flavin reduction; type: binding
T2 construct: gene CathTA2_0279
T2 sequence (F5L3B8 1-399 I379E): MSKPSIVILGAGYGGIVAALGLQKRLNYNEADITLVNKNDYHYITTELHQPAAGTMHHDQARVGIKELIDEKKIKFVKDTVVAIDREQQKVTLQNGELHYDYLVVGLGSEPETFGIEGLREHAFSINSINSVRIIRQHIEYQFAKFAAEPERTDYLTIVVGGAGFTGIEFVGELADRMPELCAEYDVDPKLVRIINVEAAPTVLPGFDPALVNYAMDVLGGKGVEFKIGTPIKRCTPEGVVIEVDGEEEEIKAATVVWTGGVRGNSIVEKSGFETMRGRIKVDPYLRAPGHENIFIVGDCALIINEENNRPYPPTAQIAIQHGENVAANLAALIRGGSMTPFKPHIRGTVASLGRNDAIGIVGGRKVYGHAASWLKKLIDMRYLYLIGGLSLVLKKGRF

[3] = target: T3, NDH-2 (type II NADH:quinone oxidoreductase) (Caldalkalibacillus thermarum, UniProt F5L3B8); test: spectroscopic titration of reduced enzyme (CTC), upper limit for KD; co-crystal structure at […] Å; type: binding
T3 construct: gene CathTA2_0279
T3 sequence (F5L3B8 1-399): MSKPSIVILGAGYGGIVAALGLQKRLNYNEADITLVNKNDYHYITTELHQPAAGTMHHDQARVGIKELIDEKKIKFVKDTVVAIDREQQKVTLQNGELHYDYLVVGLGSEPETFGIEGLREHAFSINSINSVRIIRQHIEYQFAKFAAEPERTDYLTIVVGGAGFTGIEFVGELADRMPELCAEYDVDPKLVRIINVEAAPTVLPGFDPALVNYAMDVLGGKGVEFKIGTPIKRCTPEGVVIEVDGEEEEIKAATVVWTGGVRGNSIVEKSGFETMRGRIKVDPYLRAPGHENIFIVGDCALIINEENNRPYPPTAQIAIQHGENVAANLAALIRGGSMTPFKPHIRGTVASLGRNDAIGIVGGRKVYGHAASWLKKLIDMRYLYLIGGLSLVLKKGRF

CC1=CC(=O)c2ccccc2C1=O = test: steady-state kinetics (KM); compromised binding; type: biochemical, Caldalkalibacillus thermarum; conditions: FAD quinone-binding site; clashes with the side chain of E379
purified protein [4] = substrate: CC(=O)c1ccc[n+]([C@@H]2O[C@H](COP(=O)([O-])OP(=O)(O)OC[C@H]3O[C@@H](n4cnc5c(N)ncnc54)[C@H](O)[C@@H]3O)[C@@H](O)[C@H]2O)c1; test: purified protein; conditions: FAD competes with NAD+ for the reduced flavin
purified protein [5] = substrate: NC(=O)C1=CN([C@@H]2O[C@H](COP(=O)(O)OP(=O)(O)OC[C@H]3O[C@@H](n4cnc5c(N)ncnc54)[C@H](O)[C@@H]3O)[C@@H](O)[C@H]2O)C=CC1; test: purified protein; conditions: FAD nucleotide-binding site, nicotinamide ring juxtaposed over the flavin; E198 hydrogen bonds to the adenine ribose; F165 moves
[6] = substrate: CC1=CC(=O)c2ccccc2C1=O; test: steady-state kinetics (KM) and stopped-flow flavin reoxidation; type: biochemical, Caldalkalibacillus thermarum; conditions: FAD quinone-binding site on the opposite face of the flavin to the nucleotide-binding site; I379 at the entry

NC(=O)C1=CN([C@@H]2O[C@H](COP(=O)(O)OP(=O)(O)OC[C@H]3O[C@@H](n4cnc5c(N)ncnc54)[C@H](O)[C@@H]3O)[C@@H](O)[C@H]2O)C=CC1 [NADH]
Km [1]: > 1000 µM | CTC formation by absorbance and stopped-flow flavin reduction [2]: When oxidized I379E reacts with NADH, the flavin is reduced and a CTC forms, as in the WT enzyme

NC(=O)c1ccc[n+]([C@@H]2O[C@H](COP(=O)([O-])OP(=O)(O)OC[C@H]3O[C@@H](n4cnc5c(N)ncnc54)[C@H](O)[C@@H]3O)[C@@H](O)[C@H]2O)c1 [NAD^+]
Kd [3]: < 2 µM

NDH-2 (type II NADH:quinone oxidoreductase) (Caldalkalibacillus thermarum TA2.A1; I379E)
Km (CC1=CC(=O)c2ccccc2C1=O): 780 µM

B1: NDH-2 (type II NADH:quinone oxidoreductase) (Caldalkalibacillus thermarum TA2.A1) (protein)
chain: MSKPSIVILGAGYGGIVAALGLQKRLNYNEADITLVNKNDYHYITTELHQPAAGTMHHDQARVGIKELIDEKKIKFVKDTVVAIDREQQKVTLQNGELHYDYLVVGLGSEPETFGIEGLREHAFSINSINSVRIIRQHIEYQFAKFAAEPERTDYLTIVVGGAGFTGIEFVGELADRMPELCAEYDVDPKLVRIINVEAAPTVLPGFDPALVNYAMDVLGGKGVEFKIGTPIKRCTPEGVVIEVDGEEEEIKAATVVWTGGVRGNSIVEKSGFETMRGRIKVDPYLRAPGHENIFIVGDCALIINEENNRPYPPTAQIAIQHGENVAANLAALIRGGSMTPFKPHIRGTVASLGRNDAIGIVGGRKVYGHAASWLKKLIDMRYLYLIGGLSLVLKKGRF
Km (purified protein [4]): 7.2 µM | Km (purified protein [5]): 29 µM | Km [6]: 34 µM
